Earlier results in publication PMC10148413.

Molecular target: histone H3K4 methylated peptide (Homo sapiens) (UniProt P68431)

- Kd: 150 µM
Substance: ASH1L PHD (from UniProt Q9NR48)
